One experiment concerns the target T1, human THAP2, full length (human, UniProt Q9H0W7 1-228).
T1 construct: Two-hybrid fusion or 35S-labelled in vitro translation product
Nature of the experiment: yeast two-hybrid with Par-4 wild type bait. The procedure:
(§1) To assess whether THAP2 and THAP3 are able to interact with Par-4, yeast two hybrid assays using Par-4 wild type bait (FIG. 10B) and in vitro GST pull down assays (FIG. 10C), were performed as described above (Examples 4 and 5). As shown in FIGS. 10B and 10C, THAP2 and THAP3 are able to interact with Par-4. A sequence alignment showing the comparison of the THAP domain and the PAR4-binding domain between THAP1, THAP2 and THAP3 is shown in FIG. 10A.

For a further experiment, the target named is T2, human THAP3, full length (human, UniProt Q8WTV1 1-239).
T2 construct: Two-hybrid fusion or 35S-labelled in vitro translation product
T2 sequence: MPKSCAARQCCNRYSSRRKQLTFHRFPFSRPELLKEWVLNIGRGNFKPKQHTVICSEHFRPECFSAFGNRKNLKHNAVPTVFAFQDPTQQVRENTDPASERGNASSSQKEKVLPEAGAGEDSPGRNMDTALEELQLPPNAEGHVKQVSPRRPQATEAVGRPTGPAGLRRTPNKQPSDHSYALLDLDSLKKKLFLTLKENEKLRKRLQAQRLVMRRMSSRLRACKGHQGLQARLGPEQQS
Put plainly: yeast two-hybrid with Par-4 wild type bait. On the procedure: as §1

For experiment [1], the target named is T3, THAP1-C2 deletion mutant (amino acids 120-213) (human, UniProt Q9NVV9 120-213).
T3 construct: Gal4 fusion, in vitro translation product or GFP fusion according to assay
T3 sequence: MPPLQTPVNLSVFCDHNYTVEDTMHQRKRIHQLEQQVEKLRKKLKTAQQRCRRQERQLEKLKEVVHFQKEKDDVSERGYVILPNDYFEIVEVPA
Nature of the experiment: yeast two-hybrid, Par4 wt bait.

Experiment [2] deals with T4, THAP1-N3 deletion mutant (amino acids 1-192) (human, UniProt Q9NVV9 1-192).
T4 construct: Gal4 fusion, in vitro translation product or GFP fusion according to assay
T4 sequence: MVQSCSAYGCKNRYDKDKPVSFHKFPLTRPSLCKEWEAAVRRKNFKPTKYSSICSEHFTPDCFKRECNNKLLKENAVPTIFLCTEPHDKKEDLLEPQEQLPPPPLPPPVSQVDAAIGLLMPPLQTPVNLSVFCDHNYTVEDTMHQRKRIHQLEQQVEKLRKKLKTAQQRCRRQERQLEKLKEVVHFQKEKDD
Nature of the experiment: yeast two-hybrid, Par4 wt bait.

Experiment [3] has as its target T5, THAP1-N1 deletion mutant (amino acids 1-90) (human, UniProt Q9NVV9 1-90).
T5 construct: Gal4 fusion, in vitro translation product or GFP fusion according to assay; also called zinc finger domain of THAP1
T5 sequence: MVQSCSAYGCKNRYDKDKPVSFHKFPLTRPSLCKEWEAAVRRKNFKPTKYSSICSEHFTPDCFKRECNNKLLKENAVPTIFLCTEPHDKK
Put plainly: yeast two-hybrid, Par4 wt bait.

Experiment [4] concerns the target T6, THAP1-C1 deletion mutant (amino acids 90-213) (human, UniProt Q9NVV9 90-213).
T6 construct: Gal4 fusion, in vitro translation product or GFP fusion according to assay; also called THAP1-CL; THAP1ΔTHAP
T6 sequence: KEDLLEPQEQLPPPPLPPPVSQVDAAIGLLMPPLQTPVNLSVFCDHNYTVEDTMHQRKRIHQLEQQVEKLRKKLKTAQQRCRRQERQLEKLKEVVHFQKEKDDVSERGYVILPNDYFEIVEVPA
Nature of the experiment: yeast two-hybrid, Par4 wt bait.

Experiment [5] deals with T7, THAP1-N2 deletion mutant (amino acids 1-166) (human, UniProt Q9NVV9 1-166).
T7 construct: Gal4 fusion, in vitro translation product or GFP fusion according to assay
T7 sequence: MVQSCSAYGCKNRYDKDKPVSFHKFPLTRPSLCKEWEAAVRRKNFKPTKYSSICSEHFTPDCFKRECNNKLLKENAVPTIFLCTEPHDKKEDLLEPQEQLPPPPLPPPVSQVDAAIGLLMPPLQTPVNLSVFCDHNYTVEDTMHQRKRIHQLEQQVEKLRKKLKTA
Put plainly: yeast two-hybrid, Par4 wt bait.

For experiment [6], the target named is T8, THAP1-C3 deletion mutant (amino acids 143-213) (human, UniProt Q9NVV9 143-213).
T8 construct: Gal4 fusion, in vitro translation product or GFP fusion according to assay
T8 sequence: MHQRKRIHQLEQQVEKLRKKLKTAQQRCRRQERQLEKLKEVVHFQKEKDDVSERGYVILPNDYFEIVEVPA
Nature of the experiment: yeast two-hybrid, Par4 wt bait.

For experiment [7], the target named is T9, THAP1ΔQRCRR mutant (deletion of residues 168-172) (human, UniProt Q9NVV9 1-213).
T9 sequence: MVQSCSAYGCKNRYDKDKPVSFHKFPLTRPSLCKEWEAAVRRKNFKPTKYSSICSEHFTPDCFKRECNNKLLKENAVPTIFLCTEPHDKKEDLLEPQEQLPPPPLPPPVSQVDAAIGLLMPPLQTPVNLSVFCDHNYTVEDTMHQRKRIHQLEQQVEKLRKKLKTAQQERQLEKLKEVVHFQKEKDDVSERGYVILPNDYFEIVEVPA
Nature of the experiment: yeast two-hybrid, Par4 wt bait. On the procedure:
for mutant THAP1ΔQRCRR. The resulting PCR fragments were digested with EcoRI and BamHI, and cloned in frame downstream of the Gal4 Binding Domain (Gal4-BD) in pGBKT7 two-hybrid vector (Clontech) to generate pGBKT7-THAP1-RR/AA and -Δ(QRCRR), or downstream of the Enhanced Green Fluorescent Protein (EGFP)ORF in pEGFP.C2 vector (Clontech) to generate pEGFP.C2-THAP1-RR/AA and -Δ(QRCRR). THAP1RR/AA and THAP1ΔQRCRR THAP1 mutants were then tested in the three THAP1/Par4 interaction assays (two-hybrid assay, in vitro THAP1/Par4 interaction assay, in vivo THAP1/Par4 interaction assay) as described above for the THAP1-C1, -C2, -C3, -N1, -N2 or -N3 mutants.

In experiment [8] the target is T10, human THAP1 (THanatos-Associated-Protein-1), full length (human, UniProt Q9NVV9 1-213).
T10 construct: these tags are not written into the chain; also called hTHAP1; THAP1 wild type
T10 sequence: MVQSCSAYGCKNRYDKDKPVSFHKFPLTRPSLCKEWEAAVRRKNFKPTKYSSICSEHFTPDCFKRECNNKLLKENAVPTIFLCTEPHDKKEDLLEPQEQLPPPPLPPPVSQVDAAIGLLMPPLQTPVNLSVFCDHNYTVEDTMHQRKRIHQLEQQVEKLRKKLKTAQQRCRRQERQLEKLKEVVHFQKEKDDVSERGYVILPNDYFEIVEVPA
Put plainly: yeast two-hybrid, both orientations. On the procedure:
To identify potential protein partners of THAP1, screening of the two-hybrid HEVEC cDNA library was performed using as a bait the human THAP1 full length cDNA inserted into the […] two-hybrid system 3 vector pGBKT7 (Clontech). Briefly, the full-length coding region of THAP1 was amplified by PCR from HEVEC cDNA with primers 2HMR10 (5′-[…]-3′) (SEQ ID NO: 187) and 2HMR9 (5′-[…]-3′) (SEQ ID NO: 188), digested with EcoRI and BamHI, and cloned in frame downstream of the Gal4 Binding Domain (Gal4-BD) in pGBKT7 vector to generate pGBKT7-THAP1. pGBKT7-THAP1 was then cotransformed with the pGAD424-HEVEC cDNA library in yeast strain AH109 (Clontech). 1.5×10⁷ yeast transformants were screened and positive protein interactions were selected by His and Ade double auxotrophy according to manufacturer's instructions ([…] two-hybrid system 3, Clontech). The plates were incubated at 30° C. for 5 days. Plasmid DNA was extracted from these positive colonies and used to verify the specificity of the interaction by cotransformation in AH109 with pGBKT7-THAP1 or control baits pGBKT7, pGBKT7-lamin and pGBKT7-hevin. […] Positive interaction between THAP1 and Par4 was confirmed using full length Par4 bait (pGBKT-Par4) and prey (pGADT7-Par4). […]

Experiment [9] concerns the target T11, THAP1 chemokine-binding domain/IgG1-Fc fusion constructed as described in Example 18B (THAP1 amino acids … (human, UniProt Q5RCE4 140-213 (Pongo abelii entry))).
T11 construct: Secreted with an immunoglobulin kappa light chain signal peptide (left out); also called Chemotrap-I; Chemotrap; not shown: human IgG1-Fc polypeptide from the N-terminal hinge region to the native C-terminus (hinge, CH2, CH3)
T11 sequence: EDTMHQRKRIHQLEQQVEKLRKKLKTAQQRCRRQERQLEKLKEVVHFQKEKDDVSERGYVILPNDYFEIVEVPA
Put plainly: SPR (Biacore 3000); Fc fusion amine-coupled to a C1 sensor chip, Rantes/CCL5 as analyte at 25, 50, 100 and 200 nM; KD=kd/ka. The text has this: (§2) In this Example, surface plasmon resonance (SPR) was used to determine the dissociation constant for the binding of Rantes/CCL5 to a THAP1 chemokine binding domain/IgG1-Fc fusion prepared as described in Example 18B. All SPR measurements were made using a Biacore 3000 system (Biacore, Uppsala Sweden). […] Dextran layer free biosensors, C1 type, were used to assay specific interaction between Rantes/CCL5 and the THAP1 chemokine-binding domain/IgG1-Fc fusion. Purified recombinant human Rantes/CCL5 (purchased from Chemicon) were used as analyte protein at a fixed concentration in the fluid phase (10 mM HEPES pH 7.4, 150 mM NaCl, 3 mM EDTA, 0.005% P20 surfactant, as a running buffer), and at a constant flow of 20 μl/minute. To determine the binding kinetics, association and dissociation curves were established for several increasing concentration of chemokine: 25 nM, 50 nM, 100 nM and 200 nM for CCL5, respectively. Chemokine was injected during the association phase for 4 minutes (20 μl/minute). The dissociation phase was carried out over a period of 5 minutes. Between each phase of association-dissociation, the flow cells were regenerated by injection of 0.05% SDS (30 seconds at a flow rate of 20 μl/minute). Biaevaluation (Biacore) software was used for calculations of association and dissociation kinetic constants. […]
(§3) The dissociation constant was calculated to be 49 nM.

Experiment [10] concerns the target T11, THAP1 chemokine-binding domain/IgG1-Fc …. Nature of the experiment: surface plasmon resonance (Biacore), Chemotrap-I coupled to the chip, CCL5/RANTES at 25, 50, 100 and 200 nM as analyte.
Source text: as §2, §3

The results in this text go back to patent US20060270596A1 (CENTRE NATIONAL DE LA RECHERCHE SCIENTIFIQUE CNRS, published 2006).

T1 sequence (Q9H0W7 whole entry, the tested form may be a part): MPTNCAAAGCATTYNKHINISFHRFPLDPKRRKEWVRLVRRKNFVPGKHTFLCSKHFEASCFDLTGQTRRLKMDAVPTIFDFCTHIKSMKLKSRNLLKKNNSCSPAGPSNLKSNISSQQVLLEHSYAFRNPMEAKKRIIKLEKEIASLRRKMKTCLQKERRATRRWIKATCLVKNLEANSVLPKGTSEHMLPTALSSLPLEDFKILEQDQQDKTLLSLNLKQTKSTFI

B1: human prostate apoptosis response-4 (PAR4), full length (other)
chain: MATGGYRTSSGLGGSTTDFLEEWKAKREKMRAKQNPPGPAPPGGGSSDAAGKPPAGALGTPAAAAANELNNNLPGGAPAAPAVPGPGGVNCAVGSAMLTRAPPARGPRRSEDEPPAASASAAPPPQRDEEEPDGVPEKGKSSGPSARKGKGQIEKRKLREKRRSTGVVNIPAAECLDEYEDDEAGQKERKREDAITQQNTIQNEAVNLLDPGSSYLLQEPPRTVSGRYKSTTSVSEEDVSSRYSRTDRSGFPRYNRDANVSGTLVSSSTLEKKIEDLEKEVVTERQENLRLVRLMQDKEEMIGKLKEEIDLLNRDLDDIEDENEQLKQENKTLLKVVGQLTR
notes: Gal4-BD or Gal4-AD fusion in two-hybrid; also called Par4 wild type
As for B1, the binding result with human THAP2, full length is “binds”; with human THAP3, full length, “binds”; in experiment [1], “binds”; in experiment [2], “binds”; in experiment [3] it was “no binding”; in experiment [4] it was “binds”. The binding result in experiment [5] is recorded as “no binding”; in [6] it was “binds”; in experiment [7] it was “no binding”; in experiment [8], “binds”.

B2: purified recombinant human Rantes/CCL5 (purchased from Chemicon) (ligand)
chain: SPYSSDTTPCCFAYIARPLPRAHIKEYFYTSGKCSNPAVVFVTRKNRQVCANPEKKWVREYINSLEMS
notes: Bought protein; also called recombinant Rantes/CCL5 human chemokine
For B2, the Kd – broadly, the equilibrium constant for the complex coming apart – in experiment [9] is 49 nM. For the same molecule, in experiment [10], the koff (in general, the rate constant with which the complex falls apart) was 0.00229 s⁻¹ and the kon (commonly the rate constant with which the complex forms) was 46400 M⁻¹ s⁻¹.
